These results are taken from patent US20040170622A1, “Methods and compositions for modulating XBP-1 activity” (President and Fellows of Harvard College, priority 2002, published 2004).

The subject of one experiment is XBP-1 protein. As to the kind of experiment: XBP-1 protein species in MOPC315 and MM.1S myeloma cells treated with proteasome inhibitors (Western blot). In kind it is cell-based. As to conditions: mouse myeloma MOPC315 and human myeloma MM.1S. On the procedure:
A variety of reversible and irreversible inhibitors that inhibit degradation of proteins by the ubiquitin-proteasome pathway have recently been identified. Proteasome inhibitors MG132 and PS341 block the rapid degradation of ubiquitinated proteins such as unspliced, but not spliced XBP-1. Myeloma cells express primarily spliced XBP-1 protein as expected. […] In this experiment lysates from MOPC315 cells were untreated or treated for 6 hours with 5 ug/ml of tunicamycin or 20 uM of MG-132 and were analyzed for the presence of XBP-1 using XBP-1 antibody. The two forms of XBP-1 were distinguished by their molecular weight.
In the presence of proteasome inhibitors, unspliced XBP-1 protein accumulates in the cell and is present at higher levels than the spliced protein. Lysates from Mm. 1S cells were untreated or treated for 1, 4, or 8 hours with 20 uM of PS-341 and were analyzed by western blotting with anti-XBP-1 antibody. Because unspliced, but not spliced XBP-1 is stabilized, the ratio of unspliced to spliced XBP-1 increases in cells treated with proteasome inhibitors.

A further experiment deals with IL-6. The experiment is described as follows: IL-6 production by retrovirally transduced wt and XBP-1-/- B cells (ELISA, Northern blot). In kind it is cell-based, murine. As to conditions: for secretion of IL-6 compared to control cells: LPS 72 h. The procedure: Assays to measure immunoglobulin or cytokine levels in culture supernatants were performed as described (e.g., Hodge et al., 1996 Immunity. 4:397-405 or Science. 1996 274:1903-5).
The XBP-1 cDNAs for the unspliced (XBP-1u/s) and the spliced (XBP-1s) forms were PCR-amplified from the total RNA of untreated and tunicamycin treated NIH3T3 cells, respectively, with a primer set (5′-[…]-3′ (SEQ ID NO: 7) and 5′-[…]-3′) (SEQ ID NO: 8). XBP-1u form was generated by a PCR-based mutagenesis from XBP-unspliced/s cDNA so that the two G residues at position 532 and 535 were changed to A without changing amino acid sequences in the XBP-1u open reading frame. Numbers are based on the sequences from gene bank database (NM_013842 [gi:13775155]). These XBP-1 cDNAs were inserted into the GFP-RV retroviral vector by using blunt end ligation (Sambrook et al., 1989). EFFECTENE transfection (Quiagen) was used to introduce the DNA into the Phoenix cell line as described by manufacturer (e.g., Reimold et al., 2001 Nature. 412:300-7 or Int Immunol. 2001 13:241-8). Viral supernatants were harvested after 48 hours and frozen at −80° C. for later use. B cells were purified from mouse spleens using CD43 depletion or positive selection with B220+ magnetic beads as described by the manufacturer (MidiMacs, Miltenyi Biotech). B cell purity was generally near 95% as confirmed by flow cytometry. The B cells (10^6 cells /ml) were then activated in culture with LPS 10 μg/ml and F (ab′)2 anti-IgM (5 μg/ml Southern Biotechnology Associates Inc.) for 24 hours. The 1 ml of activated B cells (10^6 cells/ml) were mixed with 4 μg of polybrene and 1 ml of virus-containing supernatant and spun at 1000 g for 45 minutes at 24° C. Cells were incubated for 24-36 h at 37° C. and then GFP+ cells were flow sorted and returned to culture with and without stimulation.
In human multiple myeloma cells, XBP-1 was induced by IL-6 treatment and implicated in the proliferation of malignant plasma cells (Wen et al., 1999). However, no role for IL-6 in upregulating XBP-1 transcripts or in mediating splicing of XBP-1 RNA in mature B cells has been described (FIG. 6A). The ability of XBP-1 to induce IL-6 production in wt and XBP-1^−/− primary B cells was tested. As described above, in vitro activated murine splenic B cells were transduced using retroviruses expressing bicistronic mRNA for XBP-1u/s, XBP-1s, XBP-1u and control GFP. After cell sorting, GFP^+ cells were stimulated with LPS and assayed for cytokine production after 72 h. In FIG. 6 panel (A) purified B cells from wt and XBP-1^−/− mice were activated in culture with LPS 10 μg/ml and F(ab′)2 anti-IgM (5 μg/ml ) for 24 hours. Retroviral transduction with GFP alone (GFP-Rv), XBP-1u/s (XBP-1 u/s GFP Rv), XBP-1s (XBP-1s GFP Rv) or XBP-1u (XBP-1u GFP Rv) of activated B cells was performed. Cells were incubated for 24-36 h at 37° C. and then GFP+ cells were flow sorted and then returned to culture with LPS stimulation (10 μg/ml) for 72 h. Cytokine production was analyzed by ELISA from culture supernatants of stimulated B cells. Experiments were done at least three times and standard deviation is shown. In panel (B) Total RNAs were prepared from stimulated B cells above and XBP-1 mRNA levels were determined by Northern blot analysis with γ-actin control
In general terms: In an ELISA, binding on a coated surface is turned into a signal by an enzyme label.

Where a SMILES comes first, the peptide text is derived from it. The star is where a group is joined. Cbz = O=C(OCc1ccccc1)*

Regarding `CC(C)C[C@@H](C=O)NC(=O)[C@H](CC(C)C)NC(=O)[C@H](CC(C)C)NC(=O)OCc1ccccc1` [MG-132] (Cbz-Leu-Leu-Leu-aldehyde), in the experiment on XBP-1 protein, the “amount of unspliced XBP-1 protein” value is on record as “dramatic increase in the amount of unspliced XBP-1 protein” and the “levels of active spliced XBP-1 protein” value is recorded as “concomitant decrease in levels of the active spliced XBP-1 protein”.

B1: XBP-1s: vector encoding only the spliced form of murine XBP-1, a protein of 371 aa (protein)
chain: MVVVAAAPSAATAAPKVLLLSGQPASGGRALPLMVPGPRAAGSEASGTPQARKRQRLTHLSPEEKALRRKLKNRVAAQTARDRKKARMSELEQQVVDLEEENHKLQLENQLLREKTHGLVVENQELRTRLGMDTLDPDEVPEVEAKGSGVRLVAGSAESAAGAGPVVTSPEHLPMDSDTVASSDSESDILLGILDKLDPVMFFKCPSPESASLEELPEVYPEGPSSLPASLSLSVGTSSAKLEAINELIRFDHVYTKPLVLEIPSETESQTNVVVKIEEAPLSSSEEDHPEFIVSVKKEPLEDDFIPELGISNLLSSSHCLRPPSCLLDAHSDCGYEGSPSPFSDMSSPLGTDHSWEDTFANELFPQLISV
As to B1, the “secretion of IL-6 compared to control cells” value in the experiment with IL-6 (XBP-1-/- B cells) is recorded as “seven fold”; with IL-6 (wild type B cells) it was “approximately ten-fold”. In the experiment with IL-6 (XBP-1s transduced cells), the “increase in IL-6 gene expression compared to controls (Northern blot)” value is given as around 5 fold.
